# Reference: patent US20210309732A1 (ELIXIRON IMMUNOTHERAPEUTICS HONG KONG, published 2021)
# Columns and labels:
# recombinant human GM-CSF [1] = biological target: T1, recombinant human GM-CSF (human, UniProt P04141 18-144); experiment: ELISA on coated rhGM-CSF, UBA relative to 1D2
# T1 construct: also called rhGM-CSF; CSF2
# In short: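 Antibody clones carrying SDR point mutants in VH or VL, each paired with the wild-type chain, were expressed in HEK293 cells. Culture media diluted 1:12000 were bound to plates coated with rhGM-CSF at 1 μg/mL for 1 h at room temperature. Detection used HRP anti-human antibody and Amplex Red fluorescence (Ex530/Em590), with UBA = fluorescence signal/dilution factor.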
# recombinant human GM-CSF [2] = biological target: T1, recombinant human GM-CSF; experiment: cell-based or functional assay
# recombinant human GM-CSF [3] = biological target: T1, recombinant human GM-CSF; experiment: Biacore
# T1 sequence (P04141 18-144 limits assumed): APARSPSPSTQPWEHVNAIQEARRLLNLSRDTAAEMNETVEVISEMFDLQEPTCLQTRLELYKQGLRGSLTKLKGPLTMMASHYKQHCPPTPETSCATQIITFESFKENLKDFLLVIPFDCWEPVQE
Binder,binding affinity % of 1D2 (recombinant human GM-CSF [1]) [%],"IC50 (M), inhibition of GM-CSF induced TF-1 cell proliferation (FIG. 5B) (recombinant human GM-CSF [2]) [M]",other results
"1D2 SDR mutant HK54G (antibody, IgG1, V domains shown, also called X3 G) VH: QVQLVQSGAEVKKPGASVKVSCEASGYTFTDKYLHWVRQAPGQGLEWMAWINPGSGGTFYAQNFKGRVTVTRDTSINTAYLELTSLRLDDTSTYYCARGRDYYDQGAADLWGQGTMVTVSS VL: DIQLTQSPSSLSASVGDRVTITCRASQGINSVLAWYQQKPGKAPKLLLYAASKLESGVPSRFSGSGSGTDYTLTISSLQPEDFGTYYCQQYYSPVRTFGQGTKVEIKR",114,1.87e-09,Ka (recombinant human GM-CSF [3]): 2.89e+09 M⁻¹; Kd (recombinant human GM-CSF [3]): 0.346 nM; koff (recombinant human GM-CSF [3]): 0.000448 s⁻¹; kon (recombinant human GM-CSF [3]): 1.3e+06 M⁻¹ s⁻¹
"1D2 SDR mutant HQ105N (antibody, IgG1, V domains shown, also called X7 N) VH: QVQLVQSGAEVKKPGASVKVSCEASGYTFTDKYLHWVRQAPGQGLEWMAWINPKSGGTFYAQNFKGRVTVTRDTSINTAYLELTSLRLDDTSTYYCARGRDYYDNGAADLWGQGTMVTVSS VL: DIQLTQSPSSLSASVGDRVTITCRASQGINSVLAWYQQKPGKAPKLLLYAASKLESGVPSRFSGSGSGTDYTLTISSLQPEDFGTYYCQQYYSPVRTFGQGTKVEIKR",156,7.67e-09,–
"1D2 SDR mutant LV32Y (antibody, IgG1, V domains shown, also called X8 Y) VH: QVQLVQSGAEVKKPGASVKVSCEASGYTFTDKYLHWVRQAPGQGLEWMAWINPKSGGTFYAQNFKGRVTVTRDTSINTAYLELTSLRLDDTSTYYCARGRDYYDQGAADLWGQGTMVTVSS VL: DIQLTQSPSSLSASVGDRVTITCRASQGINSYLAWYQQKPGKAPKLLLYAASKLESGVPSRFSGSGSGTDYTLTISSLQPEDFGTYYCQQYYSPVRTFGQGTKVEIKR",114,–,–
"1D2 SDR mutant LV32R (antibody, IgG1, V domains shown, also called X8 R) VH: QVQLVQSGAEVKKPGASVKVSCEASGYTFTDKYLHWVRQAPGQGLEWMAWINPKSGGTFYAQNFKGRVTVTRDTSINTAYLELTSLRLDDTSTYYCARGRDYYDQGAADLWGQGTMVTVSS VL: DIQLTQSPSSLSASVGDRVTITCRASQGINSRLAWYQQKPGKAPKLLLYAASKLESGVPSRFSGSGSGTDYTLTISSLQPEDFGTYYCQQYYSPVRTFGQGTKVEIKR",1030,2.48e-09,–
"1D2 SDR mutant LV95L (antibody, IgG1, V domains shown, also called X10 L) VH: QVQLVQSGAEVKKPGASVKVSCEASGYTFTDKYLHWVRQAPGQGLEWMAWINPKSGGTFYAQNFKGRVTVTRDTSINTAYLELTSLRLDDTSTYYCARGRDYYDQGAADLWGQGTMVTVSS VL: DIQLTQSPSSLSASVGDRVTITCRASQGINSVLAWYQQKPGKAPKLLLYAASKLESGVPSRFSGSGSGTDYTLTISSLQPEDFGTYYCQQYYSPLRTFGQGTKVEIKR",41,–,–
"1D2 SDR mutant LV95P (antibody, IgG1, V domains shown, also called X10 P) VH: QVQLVQSGAEVKKPGASVKVSCEASGYTFTDKYLHWVRQAPGQGLEWMAWINPKSGGTFYAQNFKGRVTVTRDTSINTAYLELTSLRLDDTSTYYCARGRDYYDQGAADLWGQGTMVTVSS VL: DIQLTQSPSSLSASVGDRVTITCRASQGINSVLAWYQQKPGKAPKLLLYAASKLESGVPSRFSGSGSGTDYTLTISSLQPEDFGTYYCQQYYSPPRTFGQGTKVEIKR",46,–,–
"1D2 SDR mutant LV95R (antibody, IgG1, V domains shown, also called X10 R) VH: QVQLVQSGAEVKKPGASVKVSCEASGYTFTDKYLHWVRQAPGQGLEWMAWINPKSGGTFYAQNFKGRVTVTRDTSINTAYLELTSLRLDDTSTYYCARGRDYYDQGAADLWGQGTMVTVSS VL: DIQLTQSPSSLSASVGDRVTITCRASQGINSVLAWYQQKPGKAPKLLLYAASKLESGVPSRFSGSGSGTDYTLTISSLQPEDFGTYYCQQYYSPRRTFGQGTKVEIKR",45,–,–
"1D2 SDR mutant LP94N (antibody, IgG1, V domains shown, also called X9 N) VH: QVQLVQSGAEVKKPGASVKVSCEASGYTFTDKYLHWVRQAPGQGLEWMAWINPKSGGTFYAQNFKGRVTVTRDTSINTAYLELTSLRLDDTSTYYCARGRDYYDQGAADLWGQGTMVTVSS VL: DIQLTQSPSSLSASVGDRVTITCRASQGINSVLAWYQQKPGKAPKLLLYAASKLESGVPSRFSGSGSGTDYTLTISSLQPEDFGTYYCQQYYSNVRTFGQGTKVEIKR",60,1.49e-09,–
"1D2 SDR mutant LV95D (antibody, IgG1, V domains shown, also called X10 D) VH: QVQLVQSGAEVKKPGASVKVSCEASGYTFTDKYLHWVRQAPGQGLEWMAWINPKSGGTFYAQNFKGRVTVTRDTSINTAYLELTSLRLDDTSTYYCARGRDYYDQGAADLWGQGTMVTVSS VL: DIQLTQSPSSLSASVGDRVTITCRASQGINSVLAWYQQKPGKAPKLLLYAASKLESGVPSRFSGSGSGTDYTLTISSLQPEDFGTYYCQQYYSPDRTFGQGTKVEIKR",47,–,–
"1D2 SDR mutant LV95C (antibody, IgG1, V domains shown, also called X10 C) VH: QVQLVQSGAEVKKPGASVKVSCEASGYTFTDKYLHWVRQAPGQGLEWMAWINPKSGGTFYAQNFKGRVTVTRDTSINTAYLELTSLRLDDTSTYYCARGRDYYDQGAADLWGQGTMVTVSS VL: DIQLTQSPSSLSASVGDRVTITCRASQGINSVLAWYQQKPGKAPKLLLYAASKLESGVPSRFSGSGSGTDYTLTISSLQPEDFGTYYCQQYYSPCRTFGQGTKVEIKR",46,–,–
"1D2 SDR mutant LV32P (antibody, IgG1, V domains shown, also called X8 P) VH: QVQLVQSGAEVKKPGASVKVSCEASGYTFTDKYLHWVRQAPGQGLEWMAWINPKSGGTFYAQNFKGRVTVTRDTSINTAYLELTSLRLDDTSTYYCARGRDYYDQGAADLWGQGTMVTVSS VL: DIQLTQSPSSLSASVGDRVTITCRASQGINSPLAWYQQKPGKAPKLLLYAASKLESGVPSRFSGSGSGTDYTLTISSLQPEDFGTYYCQQYYSPVRTFGQGTKVEIKR",581,–,–
"1D2 SDR mutant HY103N (antibody, IgG1, V domains shown, also called X6 N) VH: QVQLVQSGAEVKKPGASVKVSCEASGYTFTDKYLHWVRQAPGQGLEWMAWINPKSGGTFYAQNFKGRVTVTRDTSINTAYLELTSLRLDDTSTYYCARGRDYNDQGAADLWGQGTMVTVSS VL: DIQLTQSPSSLSASVGDRVTITCRASQGINSVLAWYQQKPGKAPKLLLYAASKLESGVPSRFSGSGSGTDYTLTISSLQPEDFGTYYCQQYYSPVRTFGQGTKVEIKR",130,3.6e-09,"IC50 (M), inhibition of GM-CSF induced TF-1 cell proliferation (FIG. 5A) (recombinant human GM-CSF [2]): 3.41e-09 M; Ka (recombinant human GM-CSF [3]): 2.5e+09 M⁻¹; Kd (recombinant human GM-CSF [3]): 0.4 nM; koff (recombinant human GM-CSF [3]): 0.000669 s⁻¹; kon (recombinant human GM-CSF [3]): 1.67e+06 M⁻¹ s⁻¹"
"1D2 SDR mutant LV95E (antibody, IgG1, V domains shown, also called X10 E) VH: QVQLVQSGAEVKKPGASVKVSCEASGYTFTDKYLHWVRQAPGQGLEWMAWINPKSGGTFYAQNFKGRVTVTRDTSINTAYLELTSLRLDDTSTYYCARGRDYYDQGAADLWGQGTMVTVSS VL: DIQLTQSPSSLSASVGDRVTITCRASQGINSVLAWYQQKPGKAPKLLLYAASKLESGVPSRFSGSGSGTDYTLTISSLQPEDFGTYYCQQYYSPERTFGQGTKVEIKR",40,–,–
